Consider 21 molecules from patent US20180222987A1.

The target in test [1] is Macaca fascicularis CD3ε/δ-Fc fusion heterodimer (Macaca fascicularis) (UniProt Q95LI8). The experiment in a line: SPR single point, hybridoma supernatant.
For test [2] the target is unchanged. The experiment in a line: SPR Biacore, Fab; unit inferred.

Macaca fascicularis CD3ε/δ-Fc fusion heterodimer (Macaca fascicularis), sequence (chain, as listed by the source mutant, chain 1 of 2): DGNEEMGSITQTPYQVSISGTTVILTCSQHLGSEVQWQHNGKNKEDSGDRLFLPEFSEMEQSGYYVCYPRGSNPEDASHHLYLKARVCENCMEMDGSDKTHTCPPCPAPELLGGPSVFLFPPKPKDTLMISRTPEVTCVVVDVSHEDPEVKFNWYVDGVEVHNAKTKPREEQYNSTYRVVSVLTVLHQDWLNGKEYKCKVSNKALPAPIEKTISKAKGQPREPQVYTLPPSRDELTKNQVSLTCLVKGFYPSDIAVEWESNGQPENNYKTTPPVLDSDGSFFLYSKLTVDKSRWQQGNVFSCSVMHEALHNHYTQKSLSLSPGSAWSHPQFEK
Macaca fascicularis CD3ε/δ-Fc fusion heterodimer (Macaca fascicularis), sequence (Q95LI8 22-105, stated change not applied, chain 2 of 2): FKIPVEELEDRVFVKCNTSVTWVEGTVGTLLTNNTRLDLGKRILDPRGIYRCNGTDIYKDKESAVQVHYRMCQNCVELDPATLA

B1: 6C9-C9 anti-CD3 antibody (antibody, V domains shown)
VH: AVQLVESGGGLVRPKESLKISCAASGFTFRNAAMYWVRQAPGKGLEWVARIRTQPNNYAKYYADSVKDRFTISRDDSKSMVYLQMDNLKTEDTAMYYCTGLVVTAMDAWGQGTSVTVSS
VL: DIQMTQSPSFLSASVGDRVTINCKASQNINKYLNWYQQKLGEAPKLLIYVTNNLQTGIPSRFSGSGSGTDYTLTISSLQPEDVATYFCLQHRSMYTFGTGTKLELK
Turning to B1, in test [1], the RU at 25 nM was found to be 32 RU.

B2: 13H2-C3 anti-CD3 antibody (antibody, V domains shown)
VH: EEELVETGGSLVQPGKSLKLTCATSGFTFSNAWMHWVRQSPDKQLEWVAQIKAKSNNYATYYAESVKGRFTISRDDSKSSVYLQMNNLKEEDTAIYYCRYVHYGLAPMDAWGQGTSVTVSS
VL: DVVMTQTPVSLSVSLGGQVSISCRSSQSLVHNNGNTYLSWYLQKAGQSPQLLIYKVSNRFSGISDRFSGSGSGTDFILKISRVEPDDLGVFYCGQGTQYPFTFGAGTKLELK
As for B2, the RU at 25 nM in test [1] turned out to be 7 RU.

B3: humanized 4B4 Fab 4B4_1 (VL1a / VH1B) (Fab, V domains shown)
VH: QVQLVETGGGLVKPGQSLKLTCATSGFTFSNAWMHWVRQSPEKGLEWVAQIKARSNNYATYYAVSVKGRFTISRDDSKSTIYLQMNSLTPEDTAIYYCRGTYYASKPFDYWGQGVMVTVSS
VL: DVVMTQTPVSLSVSVGGRVSISCRSSQSLVHDNGNTYLSWSLQKPGKSPKVLIYKVSNRFSGVSSRFTGSGSGTDFTLKISSVQPDDLGVYYCGQGTQYPFTFGSGTKLEIK
Consider B3, for which the Kd (in general, a measure of binding affinity in units of concentration) in test [2] turned out to be 3.13 nM.

B4: humanized 4B4 Fab 4B4_2 (VL1b / VH1B) (Fab, V domains shown)
VH: QVQLVETGGGLVKPGQSLKLTCATSGFTFSNAWMHWVRQSPEKGLEWVAQIKARSNNYATYYAVSVKGRFTISRDDSKSTIYLQMNSLTPEDTAIYYCRGTYYASKPFDYWGQGVMVTVSS
VL: DVVMTQTPVSLSVSVGGRVSISCRSSQSLVHDNANTYLSWSLQKPGKSPKVLIYKVSNRFSGVSSRFTGSGSGTDFTLKISSVQPDDLGVYYCGQGTQYPFTFGSGTKLEIK
In the case of B4, in test [2], the dissociation constant (Kd) is 7.57 nM.

B5: 18H11-F10 anti-CD3 antibody (antibody, V domains shown)
VH: EVQLVESGGGLVQPGRSLKLSCAASGFIFSDYYMAWVRQAPKKGLEWVATISISGSRTYYPDSVKGRFTVSRDNAKSSLYLQMNSLKSEDTATYYCATNNPGGWFVYWGQGTLVTVSS
VL: NIQMTQSPSLLSASVGDRVTLSCKAGQNINNDLAWYQQKLGEAPRLLIYNANSLQTGIPSRFSGSGSGADFTLTISSLQPEDVATYFCQQYSSGDTFGAGTKLELK
Turning to B5, the RU at 25 nM in test [1] is 55 RU.

B6: 11F9-F8 anti-CD3 antibody (antibody, V domains shown)
VH: EVQLVETGGTLVQPGKSLKLTCATSGFTFSNAWMHWVRQSPEKQLEWVAQIKAKSNNYATYYAESVKGRFTISRDDSKTSVYLQLNSLREEDTAIYYCRGTQYGYNPFDYWGQGVMVTVSS
VL: DVVLTQTPVSLSVSLGGQVSISCRSSQSLVHNNGNTYLSWSLQKPGQSPQVLIYKVSNRFSGISNRFSGSGSGTDFTLKISRVEPDDLGVYYCGQGAHYPFTFGSGTKLEIK
On to B6, for which the RU at 25 nM in test [1] turned out to be 16 RU.

B7: 20E5-F10 anti-CD3 antibody (antibody, V domains shown)
VH: EVQLVETGENLVQPGKSLRLTCATSGFSFSNAWMHWIRQSPEKQLEWVAQIKDKSNNYATYYAESVNGRFTISRDDSKSSIYLHMDNLKEEDSAIYYCRYVHYGVRFFYTMDVWGQGTSVTVSS
VL: DVVMTQTPVSLSVSLGDQVSISCRPSQSLVHNNGNTYLSWYLQKPGQSPHPLIYKVSNRFSGISDRFSGSGSGTDFTLKISRVEPDDLGVYYCGQGTQYPFTFGSGTKLEIK
B7 registered an RU at 25 nM in test [1] of 8 RU.

B8: 11D7-C3 anti-CD3 antibody (antibody, V domains shown)
VH: EVQFVETGGSLVQPGKSLKLTCATSGFTFSNAWMHWVRQSPEKQLEWVAQIKAKSNNYATYYAESVKGRFTISRDDSKSSVYLQMNSLKEEDTATYYCRGLYYGLSPSDYWGQGVMVTVSS
VL: DVVMTQTPVSLSVSLGGQVSISCRSSQSLVHNNGNTYLSWYLQKPGQSPQLLIYKVSNRFSGISDRFSGSGSGTDFTLKISRVEPDDLGVYYCGQGTHYPFTFGSGTKLEIK
Take B8: the RU at 25 nM in test [1] was found to be 10 RU.

B9: 16F8-A7 anti-CD3 antibody (antibody, V domains shown)
VH: VETGGNLVQPGKSLKLTCATSGFTFSNAWMHWVRQSPEKQLEWVAQIKAKSNNYATYYAESVKGRFTISRDDSKSSVYLQMNSLKEEDTAIYYCRYVNYGLAPMDVWGQGTSVTVSS
VL: DVVMTQTPVSLSVSLGGQVSISCRSSQSLVHNNGNTYLSWYLQKPGQSPQLLIYKVSNRFSGFSDRFSGSGSGTDFTLKISRVEPDDLGVYYCGQGTQYPFTFGAGTKLELK
The molecule B9 yielded an RU at 25 nM in test [1] of 22.5 RU.

B10: 13C1-F6 anti-CD3 antibody (antibody, V domains shown)
VH: EVQLVETGGTLVQPGKSLKLTCATSGFTFSNAWMHWVRQSPEKQLEWVAQIKAKSNNYATYYAESVKGRFTISRDDSKTSVYLQLNSLREEDTAIYYCRGTQYGYNPFDYWGQGVMVTVSS
VL: DVVMTQSPVSLSVSLGGQVSISCRSSQSLVHNNGNTYLSWYLQRSGQSPQLLIYKVSNRLSGISDRFSGSGSGTDFTLKISRIEPDDLGVYYCGQGTQYPFTFGSGTRLEIK
B10 yielded an RU at 25 nM in test [1] of 15.5 RU.

B11: 18G9-H11 anti-CD3 antibody (antibody, V domains shown)
VH: EVQLVETGGSLVQPGKSLKLTCATSGFTFSNAWIQWVRQSPEKQLEWVAQIKAKSNNYATYYAESVKGRFTISRDDSKSSVYLQMNSLKEEDTALYYCTWRHYYSSHTMDAWGQGTLVTVSS
VL: DVVMTQTPVSLSVSLGGQVSISCRSSQSLVHNNGNTYLSWYLQKPGQSPQLLIYKVSNRFSGISDRFSGSGSGTDFTLKISRVAPTDLGVYYCGQGSQYPFTFGAGTKLELK
Molecule B11 registered an RU at 25 nM in test [1] of -7 RU.

B12: 12G3-E8 anti-CD3 antibody (antibody, V domains shown)
VH: EVRVVETGGSLVQPGKSLKLTCATSGFTFSLAWMHWVRQSPEKKLEWVAQIKDKANNYATYYAESVKGRFTISRDDSKRSVYLQMNRLKEEDTAIYYCRGVYYGFSMTPFDYWGQGVMVTVSS
VL: DVAMTQTPVSLSVSLGGQVSISCRSSQSLVHNNGNTYLSWYLQKPGQSPQVLIYKVSNRFSGISDRFSGSGSGADFTLKISRVEPDDLGVYYCGQGTQYPFTFGAGTKLELK
As for B12, the RU at 25 nM in test [1] worked out at 17 RU.

B13: 10E6-G6 anti-CD3 antibody (antibody, V domains shown)
VH: EVQLVETGGGLVQSGKSLKLTCATSGFTVTNAWMHWVRQSPEKQLEWVAQIKAKSNNYETYYAESVKGRFTISRDDSKSSVYLQMNSLKEEDTAIYYCRGTQYGYNPFDYWGQGVMVTVSS
VL: DVVMTQSPVSLSVSLGGQVSISCRSSQSLVHNNGYTYLSWYLQKPGQSPQVFIYKVSNRFSGISDRFSGSGSGTDFTLKISRIEPDDLGVYYCGQGTHYPFTFGSGTKLEIK
In test [1], B13 returned an RU at 25 nM of 0 RU.

B14: 3H6-D2 anti-CD3 antibody (antibody, V domains shown)
VH: EVQLVETGGRLVQPGKSLKLTCATSGFTFSNAWMHWVRQSPEKQLEWVAQIKDKSNNYATYYAESVKGRFTISRDDSKSIIYLQMNSLKEEDTAIYYCRALTYYGYKRDAMDGWGHGTSVTVSS
VL: DVVMTQTPVSLSVSLGGQVSISCRSSQSLVHNNGNTYLSWYLQKPGQSPQLLIYKVSNRFSGISDRFSGSGSGTDFTLKISRVEPDDLGVYYCGQGTQYPFTFGAGTKLELK
The molecule B14 returned an RU at 25 nM in test [1] of 7 RU.

B15: 11F3-B9 anti-CD3 antibody (antibody, V domains shown)
VH: EVQLVETGGSLVQPGKSLTLTCATSGFTFSNAWMHWVRQSPEKQLEWVAQIKAKSNNYATYYAESVKGRFTISRDDSKRSVYLQMNSLKEEDTAIYYCRYVNYGLAPMDVWGQGTSVTVSS
VL: DVVMTQTPVSLSVSLGGQVSISCRSSQSLVHDNGNTYLSWYLQKPGQSPQLLIYKVSNRFSGFSDRFSGSGSGTDFTLKISRVEPDDLGVYYCGQGTQYPFTFGAGTKLELK
The molecule B15 returned an RU at 25 nM in test [1] of 17 RU.

B16: 4E7-C9 anti-CD3 antibody (antibody, V domains shown)
VH: EVQVVETGGSLVQPGKSLKLTCATSGFTFSNAWMHWVRQSPEKQLEWVAQIKDKSNNYATYYAESLKGRFTISRDDPKRSIYLQMNSLREEDTAIYYCRYVHYGIGYAMDAWGQGTSVTVSS
VL: DVVMTQTPVSLSVSLGGQVSISCRSSQSLEHNNGNTYLSWYLQKPGQSPQPLIYKVSNRFSGISDRFSGSGSGTDFTLKISRVEPDDLGVYYCGQGTQYPFTFGPGTKLELK
As for B16, the RU at 25 nM in test [1] amounted to 10 RU.

B17: 10F4-C10 anti-CD3 antibody (antibody, V domains shown)
VH: EVQLVETGGSLVQPGKSLKITCATSGFTFSNAWMHWVRQSPEKQLEWVAQIKAKSNNYATYYAESVKGRFTISRDDSKSSIYLQMNSLKEEDTAIYYCRAVNYGNYPLDYWGQGVMVTVSS
VL: DVVMTQTPVSLSVSLGGQVSISCRSSQSLVHNNGNTYLSWCLQKPGQSPQLLIYKVSNRFSGISDRFSGSGSGTDFTLKISRVEPDDLGVYYCGQGTQYPFTFGAGTKLELK
As to B17, in test [1], the RU at 25 nM came to 27 RU.

B18: 4B4-D7 anti-CD3 antibody (antibody, V domains shown)
VH: EVQLVETGGRLVQPGRSLKLTCATSGFTFSNAWMHWVRQSPEKQLEWVAQIKARSNNYATYYAESVKGRFTISRDDSKSTIYLQMNSLKEEDTAIYYCRGTYYASKPFDYWGQGVMVTVSS
VL: DVVMTQTPVSLSVSLGGQVSISCRSSQSLVHDNGNTYLSWSLQRPGQSPQVLIYKVSNRFSGTSDRFTGSGSGTDFTLKISRVEPDDLGVYYCGQGTQYPFTFGSGTKLEIK
With B18, in test [1], the RU at 25 nM stood at 14 RU.

B19: 5B1-G2 anti-CD3 antibody (antibody, V domains shown)
VH: EVQVVETGGSLVQPGKSLKLTCATSGFSFSNAWMHWVRQSPEKQLEWVAQIKDKANNYATYYAESVKGRFTISRDDSKGSIYLQMNSLKEEDTAVYYCRGLYYGLFPSDYWGQGVMVTVSS
VL: DVVMTQTPVSLSVSLGGQVSISCRSSQSLVHNNGNTYLSWYLLKPGQSPQLLIYKVSNRFSGISDRFSGGGSGTDFTLKISRLEPDDLGIYYCGQGTQYPFTFGSGTKLEIK
With B19, in test [1], the RU at 25 nM worked out at 0.5 RU.

B20: 8H2-F3 anti-CD3 antibody (antibody, V domains shown)
VH: QIQLVQSGPELKKPGESVKISCKASGYTFTDFAMNWVKQAPGNGLKWMGWINTQTGKPTYADGFKQRFVFSLETSASTIYLQINNLNIEDTATYFCTRGALASVGQGVMVTVSS
VL: DVVMTQTPVSLSVAIGQPASISCKSSQSLVGTSGKTYLNWLLQRPGQSPKRLIYLVSKLDSGIPDRFSGSGSETDFTLKISRVETDDLGVYYCLQGSHFPLTFGSGTKLEIK
In test [1], B20 returned an RU at 25 nM of 40 RU.

B21: 12D2-E5 anti-CD3 antibody (antibody, V domains shown)
VH: EVKLVESGGGLVQPGRSLRLSCAASGFNFYAYWMGWVRQAPGKGLEWIGEIKKDGTTINYTPSLKDRFTISRDNAQNTLYLQMTKLGSEDTALYYCAREERDGYFDYWGQGVMVTVSS
VL: QFVLTQPNSVSTNLGSTVKLSCKRSTGNIGSNYVNWYQQHEGRSPTTMIYRDDKRPDGVPDRFSGSIDRSSNSALLTINNVQTEDEADYFCQSYSSGIVFGGGTKLTVL
Turning to B21, the RU at 25 nM in test [1] came out at 5 RU.
